# Measurements: the DeepSol protein solubility set
# Test: soluble on expression in E. coli; label from the status in PepcDB or PDB records
row,Sequence,soluble on expression in E. coli
1,MASISEKMVEALNRQINAEIYSAYLYLSMASYFDSIGLKGFSNWMRVQWQEELMHAMKMFDFVSERGGRVKLYAVEEPPSEWDSPLAAFEHVYEHEVNVTKRIHELVEMAMQEKDFATYNFLQWYVAEQVEEEASALDIVEKLRLIGEDKRALLFLDKELSLRQFTPPAEEEK,soluble
2,REEVRVVVGAERTELLLPLLRDKRVALVANATSVVGTEREHLLDNLLRQGVNVVKILGPEHGFRGDADAGATVKDERDVRTGIPIVSLYGKNKKPTPRMLADVDVLLFDMQDVGTRFFTYISTLHYVMEACAEEQKKLIVTDRPNPNDYVDGPILQDDCRSFVGVDPLPILHGLTIGELANMINGEGWLGKKEMKCDLTVVPMSGWKHGQEYALPVKPSPNLPTANAIAWYPSLCLFEATIMSVGRGTDFPFEVLGYPKKVFGSFVFVPRPIRGMDSNPLYKGRHCYGVDLRGEKAPRGLSLQLLIRYYQTARREGIKFVNRKQMFNLLAGTKELAQQIEKGRTEEQIRASWQSDLDKYHKLRKKYLLY,not soluble
3,MAFPAGFGWAAATAAYQVEGGWDADGKGPCVWDTFTHQGGERVFKNQTGDVACGSYTLWEEDLKCIKQLGLTHYRFSLSWSRLLPDGTTGFINQKGIDYYNKIIDDLLKNGVTPIVTLYHFDLPQTLEDQGGWLSEAIIESFDKYAQFCFSTFGDRVKQWITINEANVLSVMSYDLGMFPPGIPHFGTGGYQAAHNLIKAHARSWHSYDSLFRKKQKGMVSLSLFAVWLEPADPNSVSDQEAAKRAITFHLDLFAKPIFIDGDYPEVVKSQIASMSQKQGYPSSRLPEFTEEEKKMIKGTADFFAVQYYTTRLIKYQENKKGELGILQDAEIEFFPDPSWKNVDWIYVVPWGVCKLLKYIKDTYNNPVIYITENGFPQSDPAPLDDTQRWEYFRQTFQELFKAIQLDKVNLQVYCAWSLLDNFEWNQGYSSRFGLFHVDFEDPARPRVPYTSAKEYAKIIRNNGLEAHL,soluble
4,STTTTTKKPHVLVIPFPQSGHMVPHLDLTHQILLRGATVTVLVTPKNSSYLDALRSLHSPEHFKTLILPFPSHPCIPSGVESLQQLPLEAIVHMFDALSRLHDPLVDFLSRQPPSDLPDAILGSSFLSPWINKVADAFSIKSISFLPINAHSISVMWAQEDRSFFNDLETATTESYGLVINSFYDLEPEFVETVKTRFLNHHRIWTVGPLLPFKAGVDRGGQSSIPPAKVSAWLDSCPEDNSVVYVGFGSQIRLTAEQTAALAAALEKSSVRFIWAVRDAAKKVNSSDNSVEEDVIPAGFEERVKEKGLVIRGWAPQTMILEHRAVGSYLTHLGWGSVLEGMVGGVMLLAWPMQADHFFNTTLIVDKLRAAVRVGENRDSVPDSDKLARILAESAREDLPERVTLMKLREKAMEAIKEGGSSYKNLDELVAEMCL,soluble
5,MKRNLLSSAIIVAIMSLGLTGCDDKKAETETLPPANSQPAAPAPEAKPTEAPVAKAEAKPETPAQPVVDEQAVFDEKMDVYIKCYNKLQIPVQRSLARYADWLKDFKQGPTGEERTVYGIYGISESNLAECEKGVKSAVALTPALQPIDGVAVSYIDAAVALGNTINEMDKYYTQENYKDDAFAKGKTLHQTFLKNLEAFEPVAESYHAAIQEINDKRQLAELKNIEEREGKTFHYYSLAVMISAKQINNLISQDKFDAEAAMKKVSELETLVAQAKEADKGGMNFSFINSAGQYQLEAKKYVRRIRDKVPYSDWDKEQLQDANSSWMVEDSFPRALREYNEMVDDYNSLR,soluble
6,MNTLIPISEQTVGQETVQTVNARDLHAFLEVKTSFKDWIIRRIQDCKFKEGYDFCSFLSESSGGRPSKEYHITLDMAKHLSMIERNDKGHEARQYFNFLFDNMSVLCLLSNQVPQKHLKYTAGRLPKQSLLRTLKALTHYMLVAYKWLVGCGYAIQYPRGESVTTDCVPCF,soluble
7,METGAGIGLYPLHRCKTIYLVRHAQGIHNVDGEKNYKAYMSHDYFDAELTQLGWKQVDSLRKHVHSSGLHKKIELVISSPLMRTLQTAVGVFGGEGYTDMSDVLPLMVANAGNSSRAAISSLNCPPVITEESCREHLGVHPCDQRRSISDYQFLFPAVDFSLIESEEDKLWKADVRETIEELAARGKKFLNWLWTRKEKEIAIVTHSGFLFHTLNALQNECHPDVKKEICGHFANCELRSMVIVDRSMLGSDSSVTDYPGKIPKGIDLPSDAVVDDNNIKVE,soluble
8,MSTHEKLLTADNPVLHQRAKAMRQEMSEAEAKLWQHLRAGRLNGYKFRRQQPMGNYIVDFMCVTPKLIVEADGGQHAEQAVYDHARTAYLNSLGFTVLRFWNHEILQQTNDVLAEILRVLQELEKQYAQ,not soluble
9,MAHHHHHHMVTLNSTKPQVVIEASGVPTIQTSSITSPVVLTTPLGKSMYSSYSYSNPVSSSYSSSHHNECEYNWERVSTKPSQSTQHGEYMKTFEVPTGLYYETLPLKRNTNNIFEVTPSKEELEKINYNPRIEVYSTCNFVIIMMDLPGVSKENLKVELENGVLKIFGHKYKVPLEELQTEHEYHTKIIERVGEYYFCKMFQMPPVFSDGQSISCTLRDGELTFKMLASDLRAQKRVVEVQS,not soluble
10,MKIGFIGVGKMASAIITGLKKTDFELIISDSSLKAGQDKAEALGVAVAQSHQELVDEVDLLVLGVKPQVLASVLNPLILTKPILSMAAGTSLEYLDKLSQADLPIIRIMPNLNAKILQSSTAICRNDKVSDQLFAIAKQITDSFGTTFEIAEKDFDTFTALAGSSPAYIALFIEAMSKAGLKHGFPKDLAFKIVSQTVLATTSNLIQGQEKPNDLIDKVSSPGGTTIAGLLDLEKTGFTASTISAIDATIDKSKNMLEHHHHHH,not soluble
11,MFTGIVQGTAPIHSIKEKANFRTQVVKLLPEMRKDLEIGASIANNGVCLTVTEINGDLVSFDLMQETLKITNLGTVKVGDYVNIERAMQMGTEIGGHLLSGHIYCTAKISDIIASENNRQIWFELPSADVMKYILTKGFVAVDGISLTIGEVRDTQFCVNLIPETLQRTLMGRRKVGDIVNIEIDPQTQAIVDTVENYLQSKNFLEHHHHHH,soluble
12,MGSDKIHHHHHHMREIAASRISAVLAELIVKISTELGEDILTALHKAYEAEESPAGRDILQSLLENARIAKEKKIPLCQDTGTAIVFAEVGQEVHVTGNFTDAINLGVRQGYEQAYLRKSIVSHPFSKRINTNDNTPAVIHTEIVPGDRLKISFMAKGSGAENMSRLFMLKPGVGREGVIEAVLETVEKAGGSPCPPIIIGLGVGATAEKAMFMAKKALLRPLGITHTDPEVAALETEVLKQVNKLGIGPLGLGGRVTALGVMAETAPTHIASLPVAVNLQCHSARHGEAVL,not soluble
13,MTIRNFAIEYDAINDRNTFSNGDTLAGRVIVEVSKQTKITSLTVQAKGKANVAWTETHGEESVTYWDKEKYFSQTQSVLPEDKADGSVTLVAGRHVFPFAFQLPNQSLPSSFKGVHGKIHYRLMAKLSRSFRAASKAEAKFTFVARADYDTSTLTTPQHGSKDKNVMFFASGNISMDIFLPKTGYQQGEGLIVNGEIVNSSTRKIVPKYIIYQKQSFFAGGQRAVHTTEILKEKGEPLVSSTRENLYKVLPLPPEISSTIHNCRILKVEYRLKVILDVSFTKNPVIKLPFIVLPLCNETPPKAIEEGLYPDLAKMKISN,soluble
14,MPPFKRTKIVATLGPATDDKEVIRALAEAGADVFRLNFSHGAPEDHRRRVGWVREVAEELGRTLAVLQDLQGPKIRVGRFREGQVLLRPGQRFVLTAEPVEGDEHRVSVSYKGLPEDVSPGQILLLDDGRIRLKVLEVRSPEILTEVEVGGVLSNNKGINIPGADLSIPALSEKDIQDLALGAELGVDWVAVSFVRTRDDLLLARHYLSRYGSKARLMAKIEKPSAVARFEEILEEADGIMVARGDLGVEMPLEEVPIVQKRLILRCIAAGKPVITATQMLESMVQNPSPTRAEASDVANAIFDGTDAVMLSAETAAGAYPVEAVAMMARIAKAVESSPEFLQKLNVLRPAPTPTTQDAIAQAADDVVEAVGARAIVVFTATGGSARRIARTRPQVPILALTPNPEVRNQLALVWGVYPHLAPDPQDTDDMVRIALREVKALGLAQVGDRVVIAAGVPFGVRGTTNLIRVERVG,soluble
15,MEDIWPTIERTTISASVPEAPANFDEKPPFNRTINVYPLTNYTFGTKDAQAEKDKSVPERFKRMKDEYEVMGMRRSVEAVLIVHEHSLPHILLLQIGTTFYKLPGGELELGEDEISGVTRLLNETLGRTDGETNEWTIEDEIGNWWRPNFDPPRYPYIPAHVTKPKEHTKLLLVQLPSKSTFCVPKNFKLVAAPLFELYDNAAAYGPLISSLPTTLSRFNFIFNDSN,not soluble
16,LKPYCRPSTSVVLQGLPMVARKTLFMLPDGGGSAFSYASLPRLKSDTAVVGLNCPYARDPENMNCTHGAMIESFCNEIRRRQPRGPYHLGGWSSGGAFAYVVAEALVNQGEEVHSLIIIDAPIPQAMEQLPRAFYEHCNSIGLFATQPGASPDGSTEPPSYLIPHFTAVVDVMLDYKLAPLHARRMPKVGIVWAADTVMDERDAPKMKGMHFMIQKRTEFGPDGWDTIMPGASFDIVRADGANHFTLMQKEHVSIISDLIDRVMA,soluble
17,MSLSELARRLNQCKKPVGDQGKVVVDDMNERHYELTGWGLDKIKIDKAYKMLDIGCGGGRTVNRLSKAAEEGEVYGIDYSSDCVRWASEYNKELIKEGRVHISEASVEKLPFEDNKFDVVTAVETIYFWPNVEENIKEVNRVLKKGGKFIIINEIYDDDKFRERNNEFAKNSNMKIYSPEKLKSLLKNAGYLNVEMEIKEENNWICYVSEKEGHHHHHH,soluble
18,MSLSFKGFKVVMLILLSTQSYASKLASSIVCDSTIENPCIVQDSKTQFSPVIRYREVASIADVYGGNITGINKFHLSGSEQPSEKGWEAIAESISRKMGAETKKVIVLDLRQESHGYLNGRAITLVSAYNWINLGKSNSQSTLDQENWLAGLRSRKIVNGVLTVPQYVAKQYSQGKSMVVSTVKNEEYYVYKKGFDYYRIFISDHRAPLDSEVDALVALIKNNPEDTWYHVHCRGGKGRTTTVFAMFDMLKNADKVSFEEIIARQASIPPFYNLMVTNREIPELTPYYEQRLQFLIHFYEFARQSLMGYSGTWSEWKKLNEGHHHHHH,soluble
19,SLGVYKARRFSQSTKKLGIHDKVLMAAAEEVMQGIWEADLGSGVIKKRLPLQQGKSGGARTIIFFKSANHVFFYDGWSKSGLSSKGSKEIEDDELAAYKKMANAFLAFSNKQIEDLIETGFLIEVKNER,not soluble
20,MHCLSDFIPWNQVSVTGDFVGHIQELIRTEVLPYQWEALNDQIAGAEPSHCLDNFRAAAEKKGHIQFHGQPFQDSDIYKWIEAAAYTLAWHPDSDLEAKADQAIELICGAQQPDGYLNTYFILTGAQRWTHLLDGHELYCAGHLMEAAVAYYHATGKDKLLKAAQKLADHIADVFGTSPGKIPGYPGHPEVELALIRLFEATGNIKYQQLAQYFICQRGASPSIFRKEADQFGWDWADSPFQFQFYQAGKPILEQTELEGHAVRALYLCCGIADVAARTQDAALLETCRRLWEDLTQTKLYITGGAGSSVYGEAFTFAYDLPNDTAYAETCAAVAVCFFAQRMMKISPSGAYGDVLEQALYNGVLSGMALDGKSFFYVNPLEVVPEACQKDQRKKHVKPIRQKWFACACCPPNLARLFASIGGYLHFIRAETLYTNLYVTSTSEFTFQGLPIKLHMDSAYPFDEKIHISLSLPRPMEFSYAVRIPAWCADYHVLINGKICAGTLKDGFLYLHRCWRDGDEVELTLSMPVRVVRANSLVRENIGKSAICRGPIVYCMEQTDNGPQLHRNRICGKPSFTISSGEENLKGLPCISCSGEYLLPDGTQLYTSAKESFQPKTLRFIPYFAWCNRSPGEMAVWVRHDTILEHHHHHH,soluble
